This is an account of results in the supplement of paper PMC10567573.

The labels stand for the following.
B1: ESR2 (parent)
chain: KSCQACRLRKCYEVGMVKCGSRRE
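Further: lentivirally expressed fusions sorted by FACS into six bins by GFP to DsRed ratio, PSI derived from sequencing read proportions per bin multiplied by bin number.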

Variants of B1 are the subject of the data set. Nature of the data set: protein stability index of a GFP-peptide fusion (GPS, HEK-293T) (PSI 1-6); higher = more stable. To be noted: c terminus: a fixed tail appended.
KSCQACRLRKCHEVGMVKCGSRRE: the protein stability index stood at 2.03. Next, KSCQACRLRKCAEVGMVKCGSRRE: 2.9; KSCQACRLRKCDEVGMVKCGSRRE: 1.83.

Consider KSCQACRLRKCGEVGMVKCGSRRE, for which the protein stability index stood at 2.36.

Regarding KSCQACRLRKCSEVGMVKCGSRRE, the protein stability index was 2.29.

Turning to KSCQACRLRKCMEVGMVKCGSRRE, the protein stability index came to 1.41. With KSCQACRLRKCWEVGMVKCGSRRE, the protein stability index amounted to 2.24.

In the case of KSCQACRLRKCQEVGMVKCGSRRE, the protein stability index worked out at 2.06.

For the variant KSCQACRLRKCCEVGMVKCGSRRE, the protein stability index is 2.78. Under KSCQACRLRKCVEVGMVKCGSRRE stands 2.19; under KSCQACRLRKCFEVGMVKCGSRRE, 1.77. Next, KSCQACRLRKCNEVGMVKCGSRRE: 2.43; KSCQACRLRKCPEVGMVKCGSRRE: 2.13; KSCQACRLRKCTEVGMVKCGSRRE: 2.77. Next, KSCQACRLRKCIEVGMVKCGSRRE: 1; KSCQACRLRKCKEVGMVKCGSRRE: 2.11; KSCQACRLRKCLEVGMVKCGSRRE: 1.89. As for KSCQACRLRKCEEVGMVKCGSRRE, the protein stability index is 2.85.

As for KSCQACRLRKCREVGMVKCGSRRE, the protein stability index is 1.9. Under KSCQACRLRKNYEVGMVKCGSRRE stands 1.78; under KSCQACRLRKIYEVGMVKCGSRRE, 2.19; under KSCQACRLRKAYEVGMVKCGSRRE, 1.82.

On to KSCQACRLRKVYEVGMVKCGSRRE, for which the protein stability index stood at 2.47. Next, KSCQACRLRKTYEVGMVKCGSRRE: 2.29. Next, KSCQACRLRKFYEVGMVKCGSRRE: 2.52; KSCQACRLRKSYEVGMVKCGSRRE: 1.68; KSCQACRLRKEYEVGMVKCGSRRE: 1.57. Next, KSCQACRLRKGYEVGMVKCGSRRE: 2.4; KSCQACRLRKPYEVGMVKCGSRRE: 1.38; KSCQACRLRKMYEVGMVKCGSRRE: 2.6. As to KSCQACRLRKKYEVGMVKCGSRRE, the protein stability index turned out to be 2.3.

Take KSCQACRLRKDYEVGMVKCGSRRE: the protein stability index is 2.72. Under KSCQACRLRKWYEVGMVKCGSRRE stands 2; under KSCQACRLRKRYEVGMVKCGSRRE, 2.5; under KSCQACRLRKLYEVGMVKCGSRRE, 2.31. Under KSCQACRLRKQYEVGMVKCGSRRE stands 1.79; under KSCQACRLRKHYEVGMVKCGSRRE, 1.74; under KSCQACRLRKCYEVFMVKCGSRRE, 2.41. Under KSCQACRLRKCYEVCMVKCGSRRE stands 2.25; under KSCQACRLRKCYEVQMVKCGSRRE, 1.49.

With KSCQACRLRKCYEVLMVKCGSRRE, the protein stability index was determined as 1.55. Under KSCQACRLRKCYEVSMVKCGSRRE stands 1.34; under KSCQACRLRKCYEVRMVKCGSRRE, 1.91; under KSCQACRLRKCYEVVMVKCGSRRE, 1.25. Next, KSCQACRLRKCYEVYMVKCGSRRE: 1.81.

KSCQACRLRKCYEVMMVKCGSRRE: the protein stability index stood at 1.96. Next, KSCQACRLRKCYEVIMVKCGSRRE: 1.79; KSCQACRLRKCYEVPMVKCGSRRE: 2.35; KSCQACRLRKCYEVKMVKCGSRRE: 2.18. Next, KSCQACRLRKCYEVHMVKCGSRRE: 1.86; KSCQACRLRKCYEVDMVKCGSRRE: 2.19. As for KSCQACRLRKCYEVTMVKCGSRRE, the protein stability index is 2.03. With KSCQACRLRKCYEVNMVKCGSRRE, the protein stability index stood at 1.97. Under KSCQACRLRKCYEVAMVKCGSRRE stands 1.69.

For KSCQACRLRKCYEVEMVKCGSRRE, the protein stability index was determined as 1.38. Next, KSCQACRLRKCYEPGMVKCGSRRE: 1.62. Under KSCQACRLRKCYEEGMVKCGSRRE stands 1.9; under KSCQACRLRKCYELGMVKCGSRRE, 1.49. Under KSCQACRLRKCYEIGMVKCGSRRE stands 1.67; under KSCQACRLRKCYESGMVKCGSRRE, 2.52; under KSCQACRLRKCYEHGMVKCGSRRE, 4.01. Consider KSCQACRLRKCYEKGMVKCGSRRE, for which the protein stability index worked out at 2.5.

With KSCQACRLRKCYEDGMVKCGSRRE, the protein stability index came out at 2.17. Under KSCQACRLRKCYECGMVKCGSRRE stands 2.17. Under KSCQACRLRKCYEMGMVKCGSRRE stands 1.77; under KSCQACRLRKCYEFGMVKCGSRRE, 1.57; under KSCQACRLRKCYEYGMVKCGSRRE, 1.7. Under KSCQACRLRKCYENGMVKCGSRRE stands 2.34. Turning to KSCQACRLRKCYEGGMVKCGSRRE, the protein stability index is 1.94. Consider KSCQACRLRKCYETGMVKCGSRRE, for which the protein stability index stood at 1.96.

On to KSCQACRLRKCYERGMVKCGSRRE, for which the protein stability index amounted to 2.27. Under KSCQACRLRKCYEAGMVKCGSRRE stands 2.1; under KSCQACRLRKCYEQGMVKCGSRRE, 2.17. Under KSCQACRLRKCYEWGMVKCGSRRE stands 1.92; under KSCQACRLRKCYHVGMVKCGSRRE, 2.89. KSCQACRLRKCYCVGMVKCGSRRE: the protein stability index came to 2.46. As for KSCQACRLRKCYSVGMVKCGSRRE, the protein stability index came to 2.42. Next, KSCQACRLRKCYIVGMVKCGSRRE: 2.03; KSCQACRLRKCYTVGMVKCGSRRE: 1.96. Next, KSCQACRLRKCYMVGMVKCGSRRE: 1.7; KSCQACRLRKCYFVGMVKCGSRRE: 2.23; KSCQACRLRKCYVVGMVKCGSRRE: 1.6. KSCQACRLRKCYDVGMVKCGSRRE: the protein stability index stood at 1.88.

As for KSCQACRLRKCYWVGMVKCGSRRE, the protein stability index came out at 1.49.

As to KSCQACRLRKCYKVGMVKCGSRRE, the protein stability index is 1.99. Under KSCQACRLRKCYQVGMVKCGSRRE stands 1.7; under KSCQACRLRKCYAVGMVKCGSRRE, 1.93.

In the case of KSCQACRLRKCYYVGMVKCGSRRE, the protein stability index is 1.38. As to KSCQACRLRKCYGVGMVKCGSRRE, the protein stability index worked out at 2.3. Next, KSCQACRLRKCYNVGMVKCGSRRE: 1.93.

As for KSCQACRLRKCYLVGMVKCGSRRE, the protein stability index is 1.64.

As for KSCQACRLRKCYRVGMVKCGSRRE, the protein stability index came to 1.95. Under KSCQACRLRKCYPVGMVKCGSRRE stands 1.69; under KSCQACRLRFCYEVGMVKCGSRRE, 1.26.
